Source: the supplement of paper PMC10065799, “High-throughput profiling of sequence recognition by tyrosine kinases and SH2 domains using bacterial peptide display” (eLife, 2023)

Target: EPHB2 (UniProt P29323)
Test: phosphorylation enrichment, bacterial display (enrichment ratio); higher = better substrate or ligand; peptides without Tyr show the background
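Note: 11-residue human phosphosite peptides and single-mutation variants displayed on the E. coli surface, counted by deep sequencing, each peptide's frequency after selection divided by its frequency in the unselected input library; frequency after pTyr selection over input frequency; kinase dosed for 20-30% of maximal phosphorylation in three min.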

Chain of EPHB2 (P29323 whole entry, looked up): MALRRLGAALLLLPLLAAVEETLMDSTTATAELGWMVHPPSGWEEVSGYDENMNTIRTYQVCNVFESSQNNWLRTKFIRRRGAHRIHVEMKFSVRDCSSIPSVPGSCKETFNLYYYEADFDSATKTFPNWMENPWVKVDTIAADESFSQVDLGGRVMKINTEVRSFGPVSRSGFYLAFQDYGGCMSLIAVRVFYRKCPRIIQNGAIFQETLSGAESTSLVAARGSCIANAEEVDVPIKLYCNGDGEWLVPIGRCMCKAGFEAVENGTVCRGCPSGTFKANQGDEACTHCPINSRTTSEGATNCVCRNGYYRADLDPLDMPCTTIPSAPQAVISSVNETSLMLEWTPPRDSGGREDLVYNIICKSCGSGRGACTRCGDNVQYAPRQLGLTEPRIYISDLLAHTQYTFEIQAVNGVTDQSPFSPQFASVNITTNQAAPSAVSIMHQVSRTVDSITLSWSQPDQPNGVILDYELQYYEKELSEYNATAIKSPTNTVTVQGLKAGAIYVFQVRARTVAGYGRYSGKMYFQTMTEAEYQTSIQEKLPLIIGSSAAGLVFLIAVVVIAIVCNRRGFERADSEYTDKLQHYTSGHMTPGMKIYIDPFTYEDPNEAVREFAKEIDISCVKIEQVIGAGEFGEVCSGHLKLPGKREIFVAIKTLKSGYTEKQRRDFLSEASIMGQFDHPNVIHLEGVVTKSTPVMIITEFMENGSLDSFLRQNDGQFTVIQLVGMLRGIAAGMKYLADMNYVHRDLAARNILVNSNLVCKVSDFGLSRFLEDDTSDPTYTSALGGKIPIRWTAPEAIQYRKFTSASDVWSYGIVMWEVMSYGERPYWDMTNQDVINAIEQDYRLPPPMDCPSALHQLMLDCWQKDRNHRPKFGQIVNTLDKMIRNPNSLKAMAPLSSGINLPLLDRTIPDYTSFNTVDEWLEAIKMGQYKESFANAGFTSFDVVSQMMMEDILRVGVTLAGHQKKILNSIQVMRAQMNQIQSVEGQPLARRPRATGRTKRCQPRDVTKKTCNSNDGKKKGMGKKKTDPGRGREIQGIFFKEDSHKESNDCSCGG

In order of falling phosphorylation enrichment:
1. VLPIDYYFPPQ [AR_Y552]  3.36
2. KVVQEYERVII [NPHS2_Y131]  2.79
3. KMKGDYYRYLA [YWHAG_Y130]  1.36
4. PKAWNYELPAT [PROM1_Y34]  0.997
5. LMVFEYMRHGD [NTRK1_Y591]  0.847
6. PSQRHYVFFFS [PTEN_Y174_R173H_YF]  0.763
7. CGTPDNIAPEI [PRKCG_Y521_Y521N]  0.762
8. RLEKEYFDQHF [NPC1_Y394]  0.707
9. ILDEAYVMAIV [EGFR_Y764_S768I]  0.686
10. PSQRPYVYYYS [PTEN_Y174_R173P]  0.676
11. NDQPDYDSVAS [GIT2_Y392]  0.671
12. LKGQVYILGLE [ASS1_Y359_R363L]  0.658
13. VPLLEYYRDIF [CDAN1_Y712]  0.647
14. CEHFSYYGMKA [SLC15A2_Y60_R57H]  0.644
15. FKRAVYCIIGR [NUP93_Y391_YF]  0.617
16. ERDFTYDELLN [EIF2S2_Y176_E177D_YF]  0.598
17. WIPIQCPIISE [NOG_Y222_Y222C]  0.591
18. VILENYGADID [DNAH5_Y596_L591V]  0.589
19. VEGIGYDFIPT [CBS_Y308]  0.576
20. WLQKLYNNFVN [MYO5C_Y526]  0.57
21. YSQNIYIQNRN [PKP2_Y631]  0.569
22. YCIDHYLGKEM [G6PD_Y202_R198C]  0.567
23. AEVDTYCRHNF [HLA-DRB1_Y107_A103E_YF]  0.556
24. TRHDEYLEVTK [MAP1A_Y2217]  0.547
25. AQAGEYGAEAL [HBA1_Y25_H21Q]  0.545
26. TLLERYGMIEI [ACSF3_Y355_T358I]  0.535
27. GGSDCYGSLRP [MYLK_Y846_R845C]  0.508
28. YFRDGHMPRQY [GSS_Y270_Y270H]  0.462
29. DHYNQYEQQKM [CHD7_Y75]  0.402

Target: Hck (UniProt P08631)
Sequence (P08631 whole entry, looked up): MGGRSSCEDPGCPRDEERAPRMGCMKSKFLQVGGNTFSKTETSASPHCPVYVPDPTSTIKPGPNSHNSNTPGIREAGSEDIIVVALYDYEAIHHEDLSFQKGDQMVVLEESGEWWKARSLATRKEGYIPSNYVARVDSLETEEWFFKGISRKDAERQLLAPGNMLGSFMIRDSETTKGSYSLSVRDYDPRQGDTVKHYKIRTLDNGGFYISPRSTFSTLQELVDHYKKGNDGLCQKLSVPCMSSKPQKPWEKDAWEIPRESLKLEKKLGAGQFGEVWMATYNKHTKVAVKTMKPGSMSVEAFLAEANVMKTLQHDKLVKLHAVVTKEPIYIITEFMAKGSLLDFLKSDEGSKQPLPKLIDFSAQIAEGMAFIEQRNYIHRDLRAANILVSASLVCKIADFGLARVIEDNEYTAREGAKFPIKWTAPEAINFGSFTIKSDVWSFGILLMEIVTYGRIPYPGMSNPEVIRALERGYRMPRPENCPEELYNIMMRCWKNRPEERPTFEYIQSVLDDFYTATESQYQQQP
Test: as above

In order of falling phosphorylation enrichment:
1. GGSDCYGSLRP [MYLK_Y846_R845C]  3.08
2. CEHFSYYGMKA [SLC15A2_Y60_R57H]  1.93
3. PSQRPYVYYYS [PTEN_Y174_R173P]  1.02
4. ERDFTYDELLN [EIF2S2_Y176_E177D_YF]  0.994
5. LKGQVYILGLE [ASS1_Y359_R363L]  0.985
6. FKRAVYCIIGR [NUP93_Y391_YF]  0.938
7. LMVFEYMRHGD [NTRK1_Y591]  0.931
8. VLPIDYYFPPQ [AR_Y552]  0.869
9. KMKGDYYRYLA [YWHAG_Y130]  0.816
10. VEGIGYDFIPT [CBS_Y308]  0.785
11. NDQPDYDSVAS [GIT2_Y392]  0.735
12. PSQRHYVFFFS [PTEN_Y174_R173H_YF]  0.712
13. YCIDHYLGKEM [G6PD_Y202_R198C]  0.694
14. RLEKEYFDQHF [NPC1_Y394]  0.665
15. WLQKLYNNFVN [MYO5C_Y526]  0.655
16. YSQNIYIQNRN [PKP2_Y631]  0.633
17. CGTPDNIAPEI [PRKCG_Y521_Y521N]  0.609
18. AEVDTYCRHNF [HLA-DRB1_Y107_A103E_YF]  0.6
19. PKAWNYELPAT [PROM1_Y34]  0.597
20. KVVQEYERVII [NPHS2_Y131]  0.563
21. WIPIQCPIISE [NOG_Y222_Y222C]  0.563
22. ILDEAYVMAIV [EGFR_Y764_S768I]  0.531
23. VILENYGADID [DNAH5_Y596_L591V]  0.515
24. AQAGEYGAEAL [HBA1_Y25_H21Q]  0.514
25. VPLLEYYRDIF [CDAN1_Y712]  0.508
26. TLLERYGMIEI [ACSF3_Y355_T358I]  0.465
27. YFRDGHMPRQY [GSS_Y270_Y270H]  0.45
28. DHYNQYEQQKM [CHD7_Y75]  0.434
29. TRHDEYLEVTK [MAP1A_Y2217]  0.399

System: AncSZ
Test: as above

In order of falling phosphorylation enrichment:
1. VLPIDYYFPPQ [AR_Y552]  4.75
2. PSQRHYVFFFS [PTEN_Y174_R173H_YF]  2.04
3. ERDFTYDELLN [EIF2S2_Y176_E177D_YF]  1.53
4. ILDEAYVMAIV [EGFR_Y764_S768I]  1.5
5. PSQRPYVYYYS [PTEN_Y174_R173P]  1.44
6. LKGQVYILGLE [ASS1_Y359_R363L]  1.37
7. WIPIQCPIISE [NOG_Y222_Y222C]  1.31
8. NDQPDYDSVAS [GIT2_Y392]  1.3
9. WLQKLYNNFVN [MYO5C_Y526]  1.25
10. PKAWNYELPAT [PROM1_Y34]  1.23
11. CGTPDNIAPEI [PRKCG_Y521_Y521N]  1.17
12. RLEKEYFDQHF [NPC1_Y394]  1.13
13. KVVQEYERVII [NPHS2_Y131]  1.09
14. VILENYGADID [DNAH5_Y596_L591V]  1.06
15. CEHFSYYGMKA [SLC15A2_Y60_R57H]  1.06
16. VEGIGYDFIPT [CBS_Y308]  1.04
17. VPLLEYYRDIF [CDAN1_Y712]  0.998
18. AEVDTYCRHNF [HLA-DRB1_Y107_A103E_YF]  0.988
19. AQAGEYGAEAL [HBA1_Y25_H21Q]  0.965
20. FKRAVYCIIGR [NUP93_Y391_YF]  0.952
21. YCIDHYLGKEM [G6PD_Y202_R198C]  0.892
22. TRHDEYLEVTK [MAP1A_Y2217]  0.882
23. LMVFEYMRHGD [NTRK1_Y591]  0.845
24. DHYNQYEQQKM [CHD7_Y75]  0.844
25. YSQNIYIQNRN [PKP2_Y631]  0.804
26. TLLERYGMIEI [ACSF3_Y355_T358I]  0.798
27. GGSDCYGSLRP [MYLK_Y846_R845C]  0.703
28. KMKGDYYRYLA [YWHAG_Y130]  0.647
29. YFRDGHMPRQY [GSS_Y270_Y270H]  0.454

Target: Fyn (UniProt P06241)
Sequence (P06241 whole entry, looked up): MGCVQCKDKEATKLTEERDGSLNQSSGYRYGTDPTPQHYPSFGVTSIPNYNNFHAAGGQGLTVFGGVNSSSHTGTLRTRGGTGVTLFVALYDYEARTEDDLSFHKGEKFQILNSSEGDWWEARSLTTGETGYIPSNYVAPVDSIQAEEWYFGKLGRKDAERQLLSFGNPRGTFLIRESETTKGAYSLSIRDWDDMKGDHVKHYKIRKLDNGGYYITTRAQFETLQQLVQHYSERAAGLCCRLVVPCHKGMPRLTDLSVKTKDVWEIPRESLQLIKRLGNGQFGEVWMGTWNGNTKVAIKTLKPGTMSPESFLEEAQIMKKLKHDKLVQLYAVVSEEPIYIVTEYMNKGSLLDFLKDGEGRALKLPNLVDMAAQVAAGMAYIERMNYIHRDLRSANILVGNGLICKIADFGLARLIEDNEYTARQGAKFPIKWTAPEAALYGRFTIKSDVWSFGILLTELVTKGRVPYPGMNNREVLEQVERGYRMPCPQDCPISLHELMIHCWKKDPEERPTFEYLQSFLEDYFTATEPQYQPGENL
Test: as above

In order of rising phosphorylation enrichment:
1. RLEKEYFDQHF [NPC1_Y394]  0.341
2. YSQNIYIQNRN [PKP2_Y631]  0.443
3. YFRDGHMPRQY [GSS_Y270_Y270H]  0.443
4. VPLLEYYRDIF [CDAN1_Y712]  0.444
5. WLQKLYNNFVN [MYO5C_Y526]  0.472
6. KVVQEYERVII [NPHS2_Y131]  0.485
7. LKGQVYILGLE [ASS1_Y359_R363L]  0.49
8. YCIDHYLGKEM [G6PD_Y202_R198C]  0.503
9. AQAGEYGAEAL [HBA1_Y25_H21Q]  0.507
10. TLLERYGMIEI [ACSF3_Y355_T358I]  0.525
11. NDQPDYDSVAS [GIT2_Y392]  0.546
12. WIPIQCPIISE [NOG_Y222_Y222C]  0.551
13. TRHDEYLEVTK [MAP1A_Y2217]  0.565
14. AEVDTYCRHNF [HLA-DRB1_Y107_A103E_YF]  0.567
15. CGTPDNIAPEI [PRKCG_Y521_Y521N]  0.593
16. KMKGDYYRYLA [YWHAG_Y130]  0.594
17. VEGIGYDFIPT [CBS_Y308]  0.594
18. LMVFEYMRHGD [NTRK1_Y591]  0.604
19. DHYNQYEQQKM [CHD7_Y75]  0.639
20. VILENYGADID [DNAH5_Y596_L591V]  0.653
21. ILDEAYVMAIV [EGFR_Y764_S768I]  0.662
22. ERDFTYDELLN [EIF2S2_Y176_E177D_YF]  0.667
23. FKRAVYCIIGR [NUP93_Y391_YF]  0.682
24. VLPIDYYFPPQ [AR_Y552]  0.687
25. PSQRHYVFFFS [PTEN_Y174_R173H_YF]  0.757
26. PKAWNYELPAT [PROM1_Y34]  0.822
27. CEHFSYYGMKA [SLC15A2_Y60_R57H]  0.866
28. PSQRPYVYYYS [PTEN_Y174_R173P]  1.43
29. GGSDCYGSLRP [MYLK_Y846_R845C]  2.79
